Results reported in US12428456B2, “Peptide directed protein knockdown” (University of British Columbia, priority 2012, dated 2025).
Entries after “also recorded” stand apart in the source; their conditions may differ. Like-named read-outs stand apart in the source and are kept apart here.

Experiments:
[1] = test system: cortical neurons; type: cell-based; conditions: H2O2 300 μM 30 min
Experimental: Primary culture of cortical neurons. Dissociated cultures of rat cortical neurons were prepared from Sprague Dawley rat embryos collected from euthanized mothers 18 days after fertilization as previously described^35. Briefly, hippocampi and cerebral cortices were extracted from embryos and incubated for 30 min in 0.25% trypsin-EDTA. Digested tissues were dissociated by trituration and plated on poly-D-lysine-coated (Sigma, P7280) plates. Plating medium consisted of Neurobasal Media (Invitrogen, 21103-049) supplemented with B27 (Invitrogen, 17504044), glutamic acid (Sigma, G8415) and GlutaMax (Invitrogen, 35050-061). After 2 days, 2/3 of the media was replaced with fresh Neurobasal feeding media consisting of Neurobasal Media, B27 and GlutaMax. Cultures were maintained at 37° C. in a humidified 5% CO2 atmosphere. […]
Assessment of neuronal death. Cytotoxic damage of primary neuron cultures was assessed by measuring LDH released into culture media as previously described^38. […] Peptide toxicity was assessed by treating neurons with 25 μM synthetic peptide or 200 μM recombinant peptide for 24 hrs. […] The amount of LDH in the medium was determined using a LDH cytotoxicity detection kit (Sigma, TOX7) according to the manufacturer's instructions. The absorbance at 490 nm was determined using a microplate reader (μQuant, Bio-TEK instruments), which was adjusted by background reading deduction.

[2] = molecular target: T1, DAPK1 (Rattus norvegicus, UniProt F1LNN8); test: DAPK1 knockdown in brain, rat MCAO focal ischemia model (immunoblot, immunohistochemistry); type: in vivo; conditions: 10 mg/kg i.v., ischemic vs contralateral side; listed as TATNR2B
T1 construct: decreased the level of endogenous DAPK1 in cultured cortical neurons following NMDA treatment; endogenous in cells; host or cells: primary rat cortical neurons (E18, 14-18 DIV)
T1 sequence (F1LNN8 1-1430): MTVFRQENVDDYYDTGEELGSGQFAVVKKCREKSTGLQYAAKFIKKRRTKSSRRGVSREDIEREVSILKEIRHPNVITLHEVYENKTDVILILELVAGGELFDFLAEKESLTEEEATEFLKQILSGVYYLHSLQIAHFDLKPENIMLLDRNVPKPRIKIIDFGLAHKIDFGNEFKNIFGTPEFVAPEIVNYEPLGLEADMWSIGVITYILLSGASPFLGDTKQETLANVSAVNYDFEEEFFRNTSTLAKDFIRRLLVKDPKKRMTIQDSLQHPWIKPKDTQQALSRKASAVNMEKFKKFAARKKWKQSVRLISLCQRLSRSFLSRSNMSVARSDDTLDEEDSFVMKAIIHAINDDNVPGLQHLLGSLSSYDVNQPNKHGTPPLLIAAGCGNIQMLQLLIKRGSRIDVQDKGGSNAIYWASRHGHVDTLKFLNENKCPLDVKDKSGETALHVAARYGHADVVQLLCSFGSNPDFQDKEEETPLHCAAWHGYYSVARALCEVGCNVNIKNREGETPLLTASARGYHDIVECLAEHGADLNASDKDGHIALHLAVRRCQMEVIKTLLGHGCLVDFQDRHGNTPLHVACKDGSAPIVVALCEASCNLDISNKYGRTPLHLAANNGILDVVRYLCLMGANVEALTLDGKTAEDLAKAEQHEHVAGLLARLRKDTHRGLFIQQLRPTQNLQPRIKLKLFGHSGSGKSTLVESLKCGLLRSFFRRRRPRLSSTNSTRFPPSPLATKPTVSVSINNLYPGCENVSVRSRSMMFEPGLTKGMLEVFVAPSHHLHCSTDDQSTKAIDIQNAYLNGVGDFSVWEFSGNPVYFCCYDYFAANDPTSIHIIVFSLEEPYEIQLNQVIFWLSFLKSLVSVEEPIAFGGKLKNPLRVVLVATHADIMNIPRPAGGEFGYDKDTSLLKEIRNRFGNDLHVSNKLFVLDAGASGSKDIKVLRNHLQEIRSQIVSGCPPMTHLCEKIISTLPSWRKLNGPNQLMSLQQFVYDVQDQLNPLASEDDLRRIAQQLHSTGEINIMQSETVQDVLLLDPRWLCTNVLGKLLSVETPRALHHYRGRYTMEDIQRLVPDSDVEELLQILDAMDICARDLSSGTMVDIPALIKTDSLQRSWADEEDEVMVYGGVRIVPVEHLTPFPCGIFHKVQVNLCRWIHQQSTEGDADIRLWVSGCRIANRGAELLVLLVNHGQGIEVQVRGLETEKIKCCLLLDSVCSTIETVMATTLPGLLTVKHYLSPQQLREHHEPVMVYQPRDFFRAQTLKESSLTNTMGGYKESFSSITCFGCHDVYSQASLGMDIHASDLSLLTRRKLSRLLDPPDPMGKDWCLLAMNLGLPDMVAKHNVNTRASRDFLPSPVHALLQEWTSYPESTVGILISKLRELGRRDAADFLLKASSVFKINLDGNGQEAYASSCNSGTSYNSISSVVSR
Experimental: (§1) Immunoblotting. Immunoblotting assays were carried out as previously described^36. Briefly, proteins were extracted from neurons using a lysis buffer composed of 150 mM NaCl, 50 mM Tris, pH 7.4, 0.1% SDS, 1% NP-40, 0.5% sodium deoxycholate, 1 mM EDTA, 1 mM Na3VO4, and proteinase inhibitor mixture (Thermo Fisher, PI78442). Samples were separated on 10% SDS-PAGE gels, transferred to polyvinylidene difluoride (PVDF) membrane, and immunoblotted with respective antibodies. Blots were enhanced with chemiluminescence detection reagent kit (Fisher, 32106) and visualized with Bio-Rad imager and Quantity One software. Signal intensities from each band was quantified with Bio-Rad Image Lab software, and the bands were analyzed relative to their controls from the same membrane and experiment.
(§2) Middle cerebral arterial occlusion (MCAO). All animal experiments were performed according to protocols approved by the University of British Columbia Committee on Animal Care. Adult naïve male Sprague-Dawley rats (300-350 g, Charles River) were group housed (3-4 animals/cage) in 12 hr:12 hr light-dark cycles and had free access to rat pellet chow and water prior to surgery. Reversible MCAO with suture-insertion method was performed as described previously^37. Briefly, a nylon suture with a blunted tip was entered through the right external carotid artery of anesthetized rats and advanced to the right internal carotid artery until the right MCA was occluded. After 60 min of occlusion, the rat was reanesthetized to facilitate the removal of the occlusion. Body temperature was maintained at between 36.5 and 37.5° C. throughout the surgical procedure with a heating pad. Peptides (10 mg/kg) or vehicle control (saline; 1 ml/kg) was injected via the jugular vein. Rats were then sewn up and allowed to recover until tissue collection.
Immunohistochemistry. Rats were anesthetized and perfused with double-filtered saline and 4% paraformaldehyde (PFA) in PBS. Brains were collected, immersed in 4% PFA before subjected to cryoprotection by 30% sucrose/PBS. After the brains had sunk, they were flash frozen with dry ice before overnight freezing in −80° C. They were then sliced at […] with a cryostat, and stored in 0.1 μM PB (sodium phosphate dibasic and sodium phosphate monobasic). Prior to staining, slices were washed 3×10 min with 0.1 μM PB, permeablized and blocked in 0.1 μM PB with 1% BSA and 0.2% Triton X-100 for 30 min, and stained with anti-DAPK1 (1:100) at 4° C. for 3 days. They were then washed and stained with Alexa 488 (1:1000) at 4° C. overnight before washing and mounting.

[3] = molecular target: T1, DAPK1; test: Knockdown of native DAPK1 in cultured cortical neurons, NMDA stimulation (immunoblot); type: cell-based; conditions: synthetic peptide 25 μM, prior to and during NMDA
Experimental: Cell culture, transfection and treatments. HEK293 cells and COS7 cells were cultured in DMEM (Sigma, D6429-24X500ML) supplemented with 10% Fetal Bovine Serum (Invitrogen, 12483020). Cells were grown to 80% confluence in 6-well plates before transiently transfected with Lipofectamine 2000 (Invitrogen, 11668019), as according to the manufacturer's protocols. Cells were transfected for either 24 or 48 hours at 37° C. before harvesting for biochemical analyses. For experiments involving TAT or His-TAT peptides, unless otherwise specified, peptides were added 1 hour prior to NMDA insult.
(§3) Primary culture of cortical neurons. Dissociated cultures of rat cortical neurons were prepared from Sprague Dawley rat embryos collected from euthanized mothers 18 days after fertilization as previously described^35. Briefly, hippocampi and cerebral cortices were extracted from embryos and incubated for 30 min in 0.25% trypsin-EDTA. Digested tissues were dissociated by trituration and plated on poly-D-lysine-coated (Sigma, P7280) plates. Plating medium consisted of Neurobasal Media (Invitrogen, 21103-049) supplemented with B27 (Invitrogen, 17504044), glutamic acid (Sigma, G8415) and GlutaMax (Invitrogen, 35050-061). After 2 days, 2/3 of the media was replaced with fresh Neurobasal feeding media consisting of Neurobasal Media, B27 and GlutaMax. Cultures were maintained at 37° C. in a humidified 5% CO2 atmosphere. Mature neurons (14-18 days in vitro (DIV)) were used for experiments.
as §1
Cellular fractionation. Cytoplasm/nuclei fractionation was performed on cultured cortical neurons (6.0*10^6 cells/100 mm dish). Briefly, cells were washed with ice cold PBS and rocked in lysis buffer for 30 min. Cells were then collected and centrifuged to obtain a rough cytoplasmic and nuclear fraction. Supernatant was collected and further centrifuged to obtain purified cytosolic fraction. The original pellet was washed and vortexed to obtain a nuclear lysis. Mitochondrial fractionation was performed as described in the Pierce Mitochondria Isolation Kit for Cultured Cells (Thermo Scientific, 89874) user guide. Purity was assessed by immunoblotting for the presence of LB1 (nucleus only), HSP90 (cytosol only) and VDAC1 (mitochondria only).

[4] = test system: rat middle cerebral artery occlusion focal ischemia model; test: Ischemic brain damage, rat MCAO focal ischemia model (H&E staining); type: in vivo; conditions: 10 mg/kg i.v., 60 min MCAO
Experimental: as §2
Hematoxylin & Eosin (H&E) staining. Slices were mounted and dried on glass slides prior staining. Slides were immersed in Hematoxylin solution (Sigma, MHS1-100ML) for 15 min away from light, followed by 5 min blueing under tap water. Slides were then counterstained with 0.5% Eosin Y (Sigma, E4009-5G) and dipped in ddH2O until the eosin stopped streaking. […]

[5] = molecular target: T2, PSD95 (Rattus norvegicus, UniProt P31016); test: Degradation of endogenous PSD95 in cultured neurons (immunoblot); type: cell-based
T2 construct: endogenous in cells; host or cells: primary rat neurons
T2 sequence (P31016 whole entry): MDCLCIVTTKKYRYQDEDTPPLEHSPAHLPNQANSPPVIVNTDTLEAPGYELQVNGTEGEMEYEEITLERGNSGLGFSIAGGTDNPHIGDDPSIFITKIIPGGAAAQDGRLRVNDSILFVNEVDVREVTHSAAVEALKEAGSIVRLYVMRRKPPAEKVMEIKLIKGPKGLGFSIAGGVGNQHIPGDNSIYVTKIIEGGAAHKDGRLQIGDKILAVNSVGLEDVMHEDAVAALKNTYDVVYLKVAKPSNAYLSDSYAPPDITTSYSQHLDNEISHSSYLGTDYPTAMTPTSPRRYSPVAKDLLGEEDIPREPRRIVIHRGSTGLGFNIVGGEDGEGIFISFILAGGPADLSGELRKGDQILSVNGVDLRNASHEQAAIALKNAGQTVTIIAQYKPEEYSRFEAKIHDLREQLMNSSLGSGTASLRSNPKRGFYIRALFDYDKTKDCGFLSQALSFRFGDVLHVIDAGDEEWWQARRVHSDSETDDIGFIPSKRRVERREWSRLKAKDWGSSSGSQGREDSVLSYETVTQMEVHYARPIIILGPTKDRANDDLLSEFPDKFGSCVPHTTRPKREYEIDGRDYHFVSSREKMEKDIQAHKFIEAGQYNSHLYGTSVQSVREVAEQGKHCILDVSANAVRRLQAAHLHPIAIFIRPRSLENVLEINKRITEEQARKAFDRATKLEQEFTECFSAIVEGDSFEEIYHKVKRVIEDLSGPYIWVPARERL
Experimental: as §3, §1

[6] = molecular target: T3, α-synuclein (Rattus norvegicus, UniProt P37377); test: Degradation of endogenous α-synuclein in cultured neurons (immunoblot); type: cell-based; conditions: 25 μM bath applied, 4 hours
T3 construct: endogenous in cells; host or cells: primary rat neurons
Experimental: as §3, §1

Compound: N[C@H](CCCP(=O)(O)O)C(=O)O [APV, (2R)-amino-5-phosphonopentanoic acid]
- neuronal death (LDH) normalized to naïve non-treated control (set as 1) ([1]; 50 μM, 12 hours after treatment): 2.16±13.8

Compound: YGRKKRRQRRRKKNRNKLRRQHSY [TAT-NR2B, CTS-lacking control peptide, reference compound]
- effect on DAPK1 levels in brain tissues (immunoblot) [2]: no obvious change
- effect on DAPK1 level after NMDA treatment [3]: did not affect DAPK1 levels
- ischemic damage / infarct areas (H&E staining) [4]: partially decreased ischemic damage

Compound: YGRKKRRQRRRKLSSIESDVKFERQKILDQRFFE (targeted knockdown peptide targeting PSD95, with TAT PTD) [TAT-NR2B9c-CTM, PSD-95 targeting peptide]
- effect on endogenous PSD95 level ([5]; 25 μM bath applied): significantly reduced PSD95; also recorded: effectively degraded endogenous PSD95
- effect of NH4Cl on PSD95 reduction ([5]; 25 μM, +NH4Cl): rescued PSD95 degradation
- effect on endogenous α-synuclein level [6]: without perturbing untargeted protein α-synuclein

Compound: catalase
- neuronal death (LDH) normalized to naïve non-treated control (set as 1) ([1]; catalase added, 12 hours): 1.17±1.76
